Measurements: the supplement of paper PMC10065799, “High-throughput profiling of sequence recognition by tyrosine kinases and SH2 domains using bacterial peptide display” (eLife, 2023)

target: Jak2 (UniProt O60674); assay: phosphorylation enrichment, bacterial display (enrichment ratio); higher = better substrate or ligand; peptides without Tyr show the background
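Also: 11-residue human phosphosite peptides and single-mutation variants displayed on the E. coli surface, counted by deep sequencing, each peptide's frequency after selection divided by its frequency in the unselected input library; frequency after pTyr selection over input frequency; kinase dosed for 20-30% of maximal phosphorylation in three min.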

Sequence of Jak2 (O60674 whole entry, looked up): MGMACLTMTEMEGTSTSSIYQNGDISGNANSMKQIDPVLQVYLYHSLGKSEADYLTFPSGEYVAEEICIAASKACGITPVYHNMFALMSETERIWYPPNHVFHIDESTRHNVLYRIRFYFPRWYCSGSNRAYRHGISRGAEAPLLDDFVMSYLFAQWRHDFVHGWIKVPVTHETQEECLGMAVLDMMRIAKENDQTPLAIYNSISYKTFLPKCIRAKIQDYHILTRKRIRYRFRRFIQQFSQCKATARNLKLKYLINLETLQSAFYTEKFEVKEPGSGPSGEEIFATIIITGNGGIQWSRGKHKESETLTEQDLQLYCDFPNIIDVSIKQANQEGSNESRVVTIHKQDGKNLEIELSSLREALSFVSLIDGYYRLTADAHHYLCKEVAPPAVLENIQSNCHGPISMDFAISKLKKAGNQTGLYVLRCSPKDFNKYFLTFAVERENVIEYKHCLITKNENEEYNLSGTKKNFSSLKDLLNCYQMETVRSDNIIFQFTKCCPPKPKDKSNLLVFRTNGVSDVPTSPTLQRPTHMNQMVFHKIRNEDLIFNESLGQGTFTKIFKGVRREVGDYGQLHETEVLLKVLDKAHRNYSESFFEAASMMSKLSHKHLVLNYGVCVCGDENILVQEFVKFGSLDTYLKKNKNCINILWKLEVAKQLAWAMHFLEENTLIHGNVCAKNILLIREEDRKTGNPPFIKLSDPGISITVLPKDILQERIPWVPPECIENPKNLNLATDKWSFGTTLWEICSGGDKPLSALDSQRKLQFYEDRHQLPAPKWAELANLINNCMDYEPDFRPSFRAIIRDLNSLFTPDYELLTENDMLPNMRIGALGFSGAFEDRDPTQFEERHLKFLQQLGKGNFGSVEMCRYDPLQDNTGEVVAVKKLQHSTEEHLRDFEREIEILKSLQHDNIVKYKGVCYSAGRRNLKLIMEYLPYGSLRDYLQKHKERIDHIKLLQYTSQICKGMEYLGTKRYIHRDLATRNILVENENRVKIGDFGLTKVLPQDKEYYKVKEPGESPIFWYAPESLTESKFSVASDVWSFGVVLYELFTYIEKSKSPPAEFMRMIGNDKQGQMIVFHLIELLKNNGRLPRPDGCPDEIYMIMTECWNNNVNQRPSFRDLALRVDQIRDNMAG

Sequence | phosphorylation enrichment
AFAEVYEGQVS [ALK_Y1131_G1128A] | 1.09
ERSMSYCDESR [SMG1_Y143_S144C] | 0.728
RGNMYYENSYA [EGFR_Y113] | 2.08
SISLKYEGRVY [ABL1_Y167_R166K] | 1.24
ATQDNYVLEVR [PTPRZ1_Y2179_D2178N] | 0.821
NDHHFYLEGTL [ALDOB_Y223_V222F] | 0.964
RGRKVYLEDGF [PRIM2_Y201] | 0.808
KSMFVYCTPNK [ATP2A2_Y497_S495F] | 1.12
KSLFHYRQFSA [CPS1_Y1491_YF] | 0.942
WRPFGYPRRRR [BCS1L_Y181] | 0.494
EVDETYVPKEF [ALB_Y521] | 1.19
DSGRDYVSQFE [APOA1_Y53] | 0.665
YRASYYRKGGC [ALK_Y1283] | 0.678
VGQRPYRPLPE [REEP3_Y170_Q171R] | 0.67
PHMQTYEVDPN [SDHB_Y61_L65P] | 1.04
LGPDGYSTVDR [ARVCF_Y901] | 1.01
CKLCQYFLDHL [ATRX_Y1849_Y1847C_YF] | 1.16

Sequence | phosphorylation enrichment
FTAVGYHKHFT [NOMO1_Y1137_I1141F] | 0.782
EFQLPYFNMVP [BMPR1A_Y457_YF] | 7.21
SLIEHYEPSET [PLCD1_Y258_R257H] | 0.983
GHNNVYISEHV [GRIN2A_Y1423_D1421N] | 0.769
NYSKMYCNPDA [KNL1_Y489_A486S] | 0.819
VQQVIYATRAL [MYH7_Y422_G425R] | 0.598
GCRSKYVRLWG [KCNQ1_Y184_G186R] | 0.636
RNGDRYFKEIV [DCX_Y64_G67E] | 0.469
FKNGDYNEVMK [LCT_Y1638] | 0.595
SPDMLYQFLKQ [RPAP3_Y567_YF] | 0.679
MSRNLYSGDCY [DDR2_Y736_Y740C] | 0.69
KVKVEYDMTVP [AHNAK_Y964_G962V] | 0.872
GAEIVYKSPVV [MAPT_Y711] | 0.694
PADSGYPAFLG [ATP6V1A_Y374_YF] | 1.1
GAVGNYSGGLA [MGMT_Y158] | 0.419
NHFKIYNLFAE [PTEN_Y68_C71Y_YF] | 0.612

test system: Fer (mouse); assay: as above

Sequence | phosphorylation enrichment
AFAEVYEGQVS [ALK_Y1131_G1128A] | 0.518
ERSMSYCDESR [SMG1_Y143_S144C] | 0.474
RGNMYYENSYA [EGFR_Y113] | 2.84
SISLKYEGRVY [ABL1_Y167_R166K] | 0.499
ATQDNYVLEVR [PTPRZ1_Y2179_D2178N] | 0.486
NDHHFYLEGTL [ALDOB_Y223_V222F] | 0.498
RGRKVYLEDGF [PRIM2_Y201] | 1.13
KSMFVYCTPNK [ATP2A2_Y497_S495F] | 0.565
KSLFHYRQFSA [CPS1_Y1491_YF] | 0.534
WRPFGYPRRRR [BCS1L_Y181] | 0.462
EVDETYVPKEF [ALB_Y521] | 0.605
DSGRDYVSQFE [APOA1_Y53] | 0.478
YRASYYRKGGC [ALK_Y1283] | 0.636
VGQRPYRPLPE [REEP3_Y170_Q171R] | 0.482
PHMQTYEVDPN [SDHB_Y61_L65P] | 0.758
LGPDGYSTVDR [ARVCF_Y901] | 0.709
CKLCQYFLDHL [ATRX_Y1849_Y1847C_YF] | 0.442

Sequence | phosphorylation enrichment
FTAVGYHKHFT [NOMO1_Y1137_I1141F] | 0.449
EFQLPYFNMVP [BMPR1A_Y457_YF] | 0.348
SLIEHYEPSET [PLCD1_Y258_R257H] | 0.525
GHNNVYISEHV [GRIN2A_Y1423_D1421N] | 0.393
NYSKMYCNPDA [KNL1_Y489_A486S] | 0.435
VQQVIYATRAL [MYH7_Y422_G425R] | 0.57
GCRSKYVRLWG [KCNQ1_Y184_G186R] | 0.472
RNGDRYFKEIV [DCX_Y64_G67E] | 0.472
FKNGDYNEVMK [LCT_Y1638] | 0.41
SPDMLYQFLKQ [RPAP3_Y567_YF] | 7.72
MSRNLYSGDCY [DDR2_Y736_Y740C] | 0.811
KVKVEYDMTVP [AHNAK_Y964_G962V] | 0.51
GAEIVYKSPVV [MAPT_Y711] | 0.416
PADSGYPAFLG [ATP6V1A_Y374_YF] | 0.759
GAVGNYSGGLA [MGMT_Y158] | 0.483
NHFKIYNLFAE [PTEN_Y68_C71Y_YF] | 0.946

target: EPHB2 (UniProt P29323); assay: as above
Sequence (P29323 whole entry, looked up): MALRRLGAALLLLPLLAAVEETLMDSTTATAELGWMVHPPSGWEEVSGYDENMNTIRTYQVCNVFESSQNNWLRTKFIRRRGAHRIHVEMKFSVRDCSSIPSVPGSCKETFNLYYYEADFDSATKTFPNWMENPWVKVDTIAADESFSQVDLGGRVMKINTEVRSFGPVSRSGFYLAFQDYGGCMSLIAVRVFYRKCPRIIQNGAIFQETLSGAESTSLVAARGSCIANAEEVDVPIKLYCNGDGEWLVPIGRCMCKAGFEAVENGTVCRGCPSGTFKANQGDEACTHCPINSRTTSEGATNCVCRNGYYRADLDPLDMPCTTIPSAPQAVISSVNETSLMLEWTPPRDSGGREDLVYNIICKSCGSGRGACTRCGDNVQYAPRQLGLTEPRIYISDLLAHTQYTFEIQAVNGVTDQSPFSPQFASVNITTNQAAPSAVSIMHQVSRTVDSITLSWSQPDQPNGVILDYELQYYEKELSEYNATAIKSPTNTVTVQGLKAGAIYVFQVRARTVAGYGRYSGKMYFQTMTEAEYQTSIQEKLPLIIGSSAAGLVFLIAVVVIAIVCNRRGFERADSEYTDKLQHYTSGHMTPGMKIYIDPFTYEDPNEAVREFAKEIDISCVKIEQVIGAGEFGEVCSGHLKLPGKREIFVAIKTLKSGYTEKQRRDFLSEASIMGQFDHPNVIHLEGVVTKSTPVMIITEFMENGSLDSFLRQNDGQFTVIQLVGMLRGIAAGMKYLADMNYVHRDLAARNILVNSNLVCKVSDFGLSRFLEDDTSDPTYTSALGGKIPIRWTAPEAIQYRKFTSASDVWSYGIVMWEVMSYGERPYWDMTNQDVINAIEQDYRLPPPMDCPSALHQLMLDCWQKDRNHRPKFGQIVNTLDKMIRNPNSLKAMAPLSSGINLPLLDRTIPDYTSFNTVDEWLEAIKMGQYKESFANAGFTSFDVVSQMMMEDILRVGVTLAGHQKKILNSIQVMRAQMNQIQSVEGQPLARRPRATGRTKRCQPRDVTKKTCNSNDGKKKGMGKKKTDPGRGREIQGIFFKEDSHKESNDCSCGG

Sequence | phosphorylation enrichment
AFAEVYEGQVS [ALK_Y1131_G1128A] | 0.504
ERSMSYCDESR [SMG1_Y143_S144C] | 0.496
RGNMYYENSYA [EGFR_Y113] | 0.619
SISLKYEGRVY [ABL1_Y167_R166K] | 0.747
ATQDNYVLEVR [PTPRZ1_Y2179_D2178N] | 0.458
NDHHFYLEGTL [ALDOB_Y223_V222F] | 0.547
RGRKVYLEDGF [PRIM2_Y201] | 0.649
KSMFVYCTPNK [ATP2A2_Y497_S495F] | 0.673
KSLFHYRQFSA [CPS1_Y1491_YF] | 0.453
WRPFGYPRRRR [BCS1L_Y181] | 0.481
EVDETYVPKEF [ALB_Y521] | 0.64
DSGRDYVSQFE [APOA1_Y53] | 0.492
YRASYYRKGGC [ALK_Y1283] | 0.435
VGQRPYRPLPE [REEP3_Y170_Q171R] | 0.557
PHMQTYEVDPN [SDHB_Y61_L65P] | 0.628
LGPDGYSTVDR [ARVCF_Y901] | 0.594
CKLCQYFLDHL [ATRX_Y1849_Y1847C_YF] | 0.612

Sequence | phosphorylation enrichment
FTAVGYHKHFT [NOMO1_Y1137_I1141F] | 0.366
EFQLPYFNMVP [BMPR1A_Y457_YF] | 0.46
SLIEHYEPSET [PLCD1_Y258_R257H] | 0.548
GHNNVYISEHV [GRIN2A_Y1423_D1421N] | 0.459
NYSKMYCNPDA [KNL1_Y489_A486S] | 0.45
VQQVIYATRAL [MYH7_Y422_G425R] | 0.505
GCRSKYVRLWG [KCNQ1_Y184_G186R] | 0.409
RNGDRYFKEIV [DCX_Y64_G67E] | 0.626
FKNGDYNEVMK [LCT_Y1638] | 0.415
SPDMLYQFLKQ [RPAP3_Y567_YF] | 0.749
MSRNLYSGDCY [DDR2_Y736_Y740C] | 2.35
KVKVEYDMTVP [AHNAK_Y964_G962V] | 0.59
GAEIVYKSPVV [MAPT_Y711] | 0.581
PADSGYPAFLG [ATP6V1A_Y374_YF] | 0.6
GAVGNYSGGLA [MGMT_Y158] | 0.48
NHFKIYNLFAE [PTEN_Y68_C71Y_YF] | 1.14

test system: c-Src; assay: as above

Sequence | phosphorylation enrichment
AFAEVYEGQVS [ALK_Y1131_G1128A] | 1.21
ERSMSYCDESR [SMG1_Y143_S144C] | 0.491
RGNMYYENSYA [EGFR_Y113] | 1.19
SISLKYEGRVY [ABL1_Y167_R166K] | 0.511
ATQDNYVLEVR [PTPRZ1_Y2179_D2178N] | 0.38
NDHHFYLEGTL [ALDOB_Y223_V222F] | 0.392
RGRKVYLEDGF [PRIM2_Y201] | 1.11
KSMFVYCTPNK [ATP2A2_Y497_S495F] | 0.494
KSLFHYRQFSA [CPS1_Y1491_YF] | 0.472
WRPFGYPRRRR [BCS1L_Y181] | 0.446
EVDETYVPKEF [ALB_Y521] | 0.595
DSGRDYVSQFE [APOA1_Y53] | 0.403
YRASYYRKGGC [ALK_Y1283] | 0.552
VGQRPYRPLPE [REEP3_Y170_Q171R] | 0.471
PHMQTYEVDPN [SDHB_Y61_L65P] | 1.35
LGPDGYSTVDR [ARVCF_Y901] | 0.395

Sequence | phosphorylation enrichment
CKLCQYFLDHL [ATRX_Y1849_Y1847C_YF] | 0.766
FTAVGYHKHFT [NOMO1_Y1137_I1141F] | 0.552
EFQLPYFNMVP [BMPR1A_Y457_YF] | 2.12
SLIEHYEPSET [PLCD1_Y258_R257H] | 0.446
GHNNVYISEHV [GRIN2A_Y1423_D1421N] | 0.425
NYSKMYCNPDA [KNL1_Y489_A486S] | 0.349
VQQVIYATRAL [MYH7_Y422_G425R] | 7.24
GCRSKYVRLWG [KCNQ1_Y184_G186R] | 0.495
RNGDRYFKEIV [DCX_Y64_G67E] | 0.559
FKNGDYNEVMK [LCT_Y1638] | 0.388
SPDMLYQFLKQ [RPAP3_Y567_YF] | 1.77
MSRNLYSGDCY [DDR2_Y736_Y740C] | 1.49
KVKVEYDMTVP [AHNAK_Y964_G962V] | 0.555
GAEIVYKSPVV [MAPT_Y711] | 0.526
PADSGYPAFLG [ATP6V1A_Y374_YF] | 0.772
GAVGNYSGGLA [MGMT_Y158] | 0.335
